The text below walks through data of publication PMC4695023, “Pancreatic adenocarcinoma upregulated factor serves as adjuvant by activating dendritic cells through stimulation of TLR4” (Oncotarget, 2015).

Usually Kd stands for the concentration at which binding is half-saturated.

The target of assay [1] is T1, Toll-like receptor 4 (TLR4), from DC lysate (mouse (endogenous in bone …, UniProt Q9QUK6 26-835)).
T1 construct: TLR4, endogenous in dendritic cells; captured from DC lysate with a TLR4/CD284 antibody on a Protein A sensor; Other lysate proteins (e.g. MD-2) may have been captured along with TLR4 (surmised); also called CD284; source: endogenous, DC lysate, captured on the sensor by TLR4/CD284 antibody (IMGENEX)
T1 sequence (looked up): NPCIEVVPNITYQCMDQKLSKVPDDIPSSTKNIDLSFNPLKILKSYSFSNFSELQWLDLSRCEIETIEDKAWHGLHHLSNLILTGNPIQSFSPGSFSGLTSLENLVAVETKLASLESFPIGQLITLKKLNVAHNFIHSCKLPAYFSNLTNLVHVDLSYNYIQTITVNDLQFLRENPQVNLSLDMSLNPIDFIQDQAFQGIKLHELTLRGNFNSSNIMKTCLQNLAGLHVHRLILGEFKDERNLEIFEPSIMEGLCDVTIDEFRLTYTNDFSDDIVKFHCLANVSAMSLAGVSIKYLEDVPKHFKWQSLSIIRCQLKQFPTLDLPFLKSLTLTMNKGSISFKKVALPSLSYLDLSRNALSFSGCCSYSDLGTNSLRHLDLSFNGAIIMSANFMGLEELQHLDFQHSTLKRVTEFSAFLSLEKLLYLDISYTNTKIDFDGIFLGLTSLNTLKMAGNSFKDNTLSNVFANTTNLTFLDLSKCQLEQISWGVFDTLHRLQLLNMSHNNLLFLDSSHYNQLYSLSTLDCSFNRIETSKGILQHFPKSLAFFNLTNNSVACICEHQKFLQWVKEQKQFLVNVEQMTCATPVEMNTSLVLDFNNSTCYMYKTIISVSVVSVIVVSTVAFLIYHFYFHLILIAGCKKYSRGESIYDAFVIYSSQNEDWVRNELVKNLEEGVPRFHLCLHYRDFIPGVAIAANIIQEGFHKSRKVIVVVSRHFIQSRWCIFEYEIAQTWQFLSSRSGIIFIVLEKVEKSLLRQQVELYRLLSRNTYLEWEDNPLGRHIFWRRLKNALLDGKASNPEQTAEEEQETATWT
Kind of assay: BLI; BLItz system; Protein A sensor loaded with TLR2 or TLR4 antibody (0.1 mg/mL), then DC lysate (0.3 mg/mL, 150 sec); association with purified PAUF or BSA (0.3 mg/mL) for 150 sec, dissociation in PBS for 150 sec; KD from BLItz pro software as a non-advanced kinetics experiment. The settings on record: one partner purified.

Assay [2] concerns the target T2, Toll-like receptor 2 (TLR2), from DC lysate (mouse (endogenous in bone …, UniProt Q9QUN7 25-784)).
T2 construct: TLR2, endogenous in dendritic cells; captured from DC lysate with an anti-mouse CD282 (TLR2) antibody on a Protein A sensor; Other lysate proteins may have been captured along with TLR2; also called CD282; source: endogenous, DC lysate, captured on the sensor by anti-mouse CD282 (TLR2) antibody
The assay is described as above. The settings on record: one partner purified.

T2 sequence (Q9QUN7 25-784): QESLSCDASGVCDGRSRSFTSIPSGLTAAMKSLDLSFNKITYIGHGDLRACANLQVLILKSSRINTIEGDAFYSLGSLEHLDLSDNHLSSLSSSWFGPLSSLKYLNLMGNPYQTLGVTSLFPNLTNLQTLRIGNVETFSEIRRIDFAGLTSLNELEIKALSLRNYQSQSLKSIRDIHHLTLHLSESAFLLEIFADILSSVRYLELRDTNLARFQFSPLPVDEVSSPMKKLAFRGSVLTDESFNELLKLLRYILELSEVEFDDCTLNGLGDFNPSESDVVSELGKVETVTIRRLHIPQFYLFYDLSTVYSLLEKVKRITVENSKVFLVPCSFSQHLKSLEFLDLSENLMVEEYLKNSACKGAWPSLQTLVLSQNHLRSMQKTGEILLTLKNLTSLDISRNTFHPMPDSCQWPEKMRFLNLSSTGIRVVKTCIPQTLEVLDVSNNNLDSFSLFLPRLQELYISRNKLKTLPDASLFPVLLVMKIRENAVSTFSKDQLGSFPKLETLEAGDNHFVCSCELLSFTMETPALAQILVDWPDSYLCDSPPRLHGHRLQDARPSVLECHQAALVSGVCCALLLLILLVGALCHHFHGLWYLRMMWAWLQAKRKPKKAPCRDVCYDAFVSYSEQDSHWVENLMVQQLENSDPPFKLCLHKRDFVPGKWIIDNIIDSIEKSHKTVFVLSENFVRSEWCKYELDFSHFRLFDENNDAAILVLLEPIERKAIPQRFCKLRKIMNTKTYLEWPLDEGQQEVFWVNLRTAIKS

B1: Pancreatic adenocarcinoma upregulated factor (PAUF), recombinant, Fc removed (ligand, human, UniProt Q96DA0 17-172, looked up)
chain: GKMYGPGGGKYFSTTEDYDHEITGLRVSVGLLLVKSVQVKLGDSWDVKLGALGGNTQEVTLQPGEYITKVFVAFQAFLRGMVMYTSKDRYFYFGKLDGQISSAYPSQEGQVLVGIYGQYQLLGIKSIGFEWNYPLEEPTTEPPVNLTYSANSPVGR
notes: As a secreted protein it should lack its signal peptide (surmised); also called purified PAUF; PAUF protein; source: CHO/dhFr- cells, transfected with pcDNA3.1(+)-PAUF-Fc; secreted PAUF-Fc purified using Protein A resin, then Fc removed
Regarding B1, the Kd was 145 nM in assay [1] and 10.6 nM in assay [2].
